Experiments:
GST-MLL3PHD2/3 = assay: GST pull-down, WT MLL3PHD2/3; type: binding, human; conditions: WT GST-MLL3PHD2/3; HEK293FT lysate, 3 h at 4 °C, western blot; n = 3
Procedure: (§1) Pull-down assays were performed by mixing resin-bound GST-MLL3PHD2/3 and GST-MLL4PHD2/3 (wild type and mutants) with lysates of HEK293FT expressing Myc-ASXL1, Myc-ASXL2 or Myc-ASXL2ΔMBH. Pellets of HEK293FT cells transfected with the appropriate pDEST expression construct (15 μg/dish using polyethylenimine (PEI)) were lysed with 10 times their volume of lysis buffer (50 mM Tris pH 7.3, 100 mM NaCl, 1 mM DTT, 1 mM EDTA, 1 mM PMSF, 0.1% Tween20, 1/100 anti-protease (Sigma)) and sonicated with a probe sonicator (Branson digital sonifier 450) calibrated at 40% amplitude for 3–4 rounds during 40–60 s. Lysates were then centrifuged in a Sorvall Lynx 6000 (rotor: F21-8x50Y) at 15,000 RPM during 20 min. Approximatively 9 μg of purified GST-fusion proteins bound to GSH resin (Sigma, G4510) were used for each condition. Final volume of GSH resin was adjusted to 30 μl per condition with empty GSH beads and incubated with 1.5 mL of HEK293FT lysate expressing Myc-ASXL1, Myc-ASXL2 or Myc-ASXL2ΔMBH for 3 h at 4 °C on a rotative system. A fraction of the reaction mixture (80 μL) was collected as the input. After the incubation, beads were washed 5 times and mixed with 100 μL of Laemmli buffer. Samples were loaded on 8% or 15% SDS-acrylamide gels and processed for western blotting.

GST-MLL4PHD2/3 = assay: GST pull-down, WT MLL4PHD2/3; type: binding, human; conditions: WT GST-MLL4PHD2/3; HEK293FT lysate, 3 h at 4 °C, western blot; n = 3
Procedure: as §1

PR-DUB complex = assay: Tandem affinity purification: association with PR-DUB complex; type: cell-based, human; conditions: K562 soluble nuclear extracts, 3Flag-2Strep tag, western blot and mass spectrometry
Procedure: (§2) Isogenic K562 cell lines expressing 3xFlag2xStrep-tagged ASXL2 WT and ΔMBH (aa 650-670), were generated by integration at the AAVS1 safe harbor locus after DSB induction and recombination targeted by co-transfection with a ZFN expression plasmid, as previously described. 2 × 10^5 cells were transfected with 400 ng of ZFN expression vector and 4 μg of donor constructs. Selection and cloning were performed in RPMI medium supplemented with 0.5 μg/mL puromycin starting 2–3 days post transfection. Clones were obtained by limiting dilution and expanded before harvest for western blot analysis.
(§3) For purification of native complexes, after large-scale expansion of K562 clones, affinity purifications of tagged ASXL2 WT and ΔMBH (aa 650-670) were performed on nuclear extracts as previously described. Briefly, nuclear extracts were prepared following standard procedures and pre-cleared with CL6B Sepharose beads. […] Typically, 5–15 μl of the elutions (1–3% of total) was loaded on NuPAGE 4–12% Bis-Tris gels (Invitrogen) and analyzed by silver staining and western blots. […] Purified fractions were prepared and analyzed at the Proteomics Platform of the Quebec Genomic Center using an Orbitrap Fusion mass spectrometer (Thermo Fisher Scientific) as previously described. […]

MLL3/4 complexes = assay: Tandem affinity purification: interaction with MLL3/4 complexes; type: cell-based, human; conditions: K562 soluble nuclear extracts, 3Flag-2Strep tag, western blot and mass spectrometry
Procedure: as §2, §3

H2AK119 = H2AK119 deubiquitination assay; type: biochemical, human
Procedure: The deubiquitination reactions were done by adding equivalent amounts of ASXL2 WT or ΔMBH (4 μl E1-F) native complexes purified from K562 cells to 0.5 μg of chromatin enriched extracts from K562 cells, incubated at 37 °C in 50 mM Tris-HCl pH 7.3, 50 mM NaCl, 1 mM MgCl2, 1 mM DTT, 1 mM PMSF, 10 μg/ml Leupeptin, 10 μg/ml Pepstatin A, 25 μg/ml Aprotinin. After 3 or 6 h incubation, 4X Laemmli buffer was added, the samples run on 15% SDS-PAGE and transferred on nitrocellulose membrane. Immunoblotting was performed with an anti-H2AK119ub (Cell Signaling, D27C4, rabbit polyclonal) diluted 1:2000 followed by HRP conjugated secondary goat anti-rabbit antibody (Sigma) used at a 1:10,000 dilution. The immunoblots were visualized using a Western Lightning plus-ECL reagent (Perkin-Elmer). Anti-H3 (Abcam, Ab1791, rabbit polyclonal) was used at a 1:50,000 dilution.
Cell pellets were harvested 2 days post-transfection and lysed with 10 times their own volume with EB300 lysis buffer (50 mM Tris pH 7.3, 300 mM NaCl, 0.5% Triton X100 (V/V), 5 mM EDTA, 50 mM NaF, 1 mM Na3VO4 (activated), 10 mM Beta-glycerol-phosphate, 1 mM DTT, 1 mM PMSF, 1/100 anti-protease (Sigma)). Lysates were incubated on ice for 30 min before centrifugation in a Sorvall Lynx 6000 (rotor: F21-8x50Y) at 15,000 RPM during 20 min. Supernatants were collected and diluted with EB0 (50 mM Tris pH 7.3, 0.5% Triton X100 (V/V), 5 mM EDTA, 50 mM NaF, 1 mM Na3VO4, 10 mM Beta-glycerol-phosphate, 1 mM DTT, 1 mM PMSF, 1/100 anti-protease) to adjust the final concentration of NaCl to 150 mM. Agarose anti-FlagM2 beads (40 μL) (Sigma, A2220) were added to each lysate and incubated overnight at 4 °C on a rotative system. The next day, beads were washed 5 times with the wash buffer (50 mM Tris pH 7.3, 150 mM NaCl, 0.5% Triton X100 (V/V), 1/500 anti-protease, 1 mM DTT, 1 mM PMSF). […] Following three elutions of 2 h each, the pooled fractions were incubated with 40 μL of anti-HA beads (Sigma A2095) overnight at 4 °C on a rotative system. […]

[1] = tested on: H3K4 (recombinant histone octamers or mono-nucleosomes); assay: H3K4 histone methyltransferase assay; type: biochemical, human; conditions: purified complexes, 50 μM S-adenosyl-L-methionine, 8 h at 30 °C, n = 2
Procedure: Equivalent amounts of purified ASXL2 WT and ΔMBH complexes were incubated with 0.5 μg of reconstituted recombinant mono-nucleosomes or histone octamers as substrates. All HMT assays were performed in 50 mM Tris-HCl pH 8, 100 mM KCl, 5 mM MgCl2, 0.1 mM DTT, 10% glycerol in the presence of 50 μM S-adenosyl-L-methionine (Sigma, A7007). After an 8 h incubation at 30 °C, 4X Laemmli buffer was added, the samples run on 15% SDS-PAGE and transferred on nitrocellulose membrane. Immunoblotting was performed with an anti-H3K4me1 (Ab8895, rabbit polyclonal) diluted 1:1000 followed by HRP conjugated secondary goat anti-rabbit antibody (Sigma) used at a 1:10,000 dilution. The immunoblots were visualized using a Western Lightning plus-ECL reagent (Perkin-Elmer). Anti-H4 (Abcam, Ab7311, rabbit polyclonal) was used at a 1:2,500 dilution.

[2] = tested on: active enhancer upstream of GRHL2 gene in K562 ASXL2 KD cells; assay: ChIP-qPCR at active enhancer upstream of GRHL2; type: cell-based, human; conditions: K562 ASXL2 KD cells complemented from AAVS1; IP/input corrected for total H3; three biological replicates
Text: K562 cell lines with knocked down expression of endogenous ASXL2 were obtained after double infection of lentivirus expressing Cas9 and 4 different gRNAs targeting the end of exon 1 (pLENTI_CRISPR_V2, co-selection by FACS with GFP). Clone 1 L was selected (obtained with gRNA 1: 5′-[…]-3′ cutting at the very end of exon 1) for transfection of WT and DMBH ASXL2 vectors for integration and stable expression from the AAVS1 safe harbor, as described for the tagged K562 cell lines used for purification. Expression levels of endogenous ASXL2, WT and ΔMBH ASXL2 were monitored by running SDS-PAGE and transferring onto nitrocellulose membrane. Anti-FLAG M2 conjugated to horseradish peroxidase (A8592, Sigma) was used at 1:10,000 dilution and anti-ASXL2, at 1:2,000 (Cell Signaling (E623X), CS71257, lot:1). Immunoblots were visualized using a Western Lightning plus ECL reagent (Perkin-Elmer).
Crosslinked chromatin from K562 cells and immunoprecipitations were prepared as previously described. For chromatin immunoprecipitation, 100 μg of chromatin was incubated with 2 μg anti-H2AK119ub (Cell Signaling, 8240S, D27C4 lot:9) or 3 μg anti-H3 (Abcam, ab1791, lot GR3421644-1), 2 μg anti-H3Kme1 (Abcam, ab8895, lot GR442591-1), 2 μg anti-H3K27ac (Thermo Fisher, MA5-23516, lot: ZA4181671) or 0.3 μg anti-H3K27me3 (Cell Signaling, C36B11, 9733 S lot:19) antibodies overnight at 4 °C. 25 μl of Protein A Dynabeads were then added to each sample, and the mixtures were incubated at 4 °C for 4 h. The beads were washed extensively and eluted with 1% SDS and 0.1 M NaHCO3. Cross-linked samples were reversed by heating overnight at 65 °C in the presence of 0.2 M NaCl. Samples were then treated with RNase A and proteinase K for 2 h, and DNA was recovered using MinElute PCR purification Kit (Qiagen, 28004) according to the manufacturer’s instructions. Quantitative real-time PCR corrected for primer efficiencies in the linear range was performed using SYBR Green I (Roche, 04877352001) on a LightCycler 480 (Roche). Primers for 5′ end of active enhancer: Fwd: 5′-[…]; Rev: 5′-[…]; For 3′ end: Fwd: 5′-[…], Rev: 5′-[…].

B1: ASXL2ΔMBH: ΔMBH ASXL2 mutant lacking the MLL3/4-binding domain (aa 650-670) (protein)
chain: MREKGRRKKGRTWAEAAKTVLEKYPNTPMSHKEILQVIQREGLKEIRSGTSPLACLNAMLHTNSRGEEGIFYKVPGRMGVYTLKKDVPDGVKELSEGSEESSDGQSDSQSSENSSSSSDGGSNKEGKKSRWKRKVSSSSPQSGCPSPTIPAGKVISPSQKHSKKALKQALKQQQQKKQQQQCRPSISISSNQHLSLKTVKAASDSVPAKPATWEGKQSDGQTGSPQNSNSSFSSSVKVENTLLGLGKKSFQRSERLHTRQMKRTKCADIDVETPDSILVNTNLRALINKHTFSVLPGDCQQRLLLLLPEVDRQVGPDGLMKLNGSALNNEFFTSAAQGWKERLSEGEFTPEMQVRIRQEIEKEKKVEPWKEQFFESYYGQSSGLSLEDSKKLTASPSDPKVKKTPAEQPKSMPVSEASLIRIVPVVSQSECKEEALQMSSPGRKEECESQGEVQPNFSTSSEPLLSSALNTHELSSILPIKCPKDEDLLEQKPVTSAEQESEKNHLTTASNYNKSESQESLVTSPSKPKSPGVEKPIVKPTAGAGPQETNMKEPLATLVDQSPESLKRKSSLTQEEAPVSWEKRPRVTENRQHQQPFQVSPQPFLNRGDRIQVRKVPPLKIPVSRISPMPFHPSQVSPRARFPVSITSPRAAAAAAAAAAAAASVGGTIPGPGPGGGQGPGEGGEGQTARGGSPGSDRVSETGKGPTLELAGTGSRGGTRELLPCGPETQPQSETKTTPSQAQPHSVSGAQLQQTPPVPPTPAVSGACTSVPSPAHIEKLDNEKLNPTRATATVASVSHPQGPSSCRQEKAPSPTGPALISGASPVHCAADGTVELKAGPSKNIPNPSASSKTDASVPVAVTPSPLTSLLTTATLEKLPVPQVSATTAPAGSAPPSSTLPAASSLKTPGTSLNMNGPTLRPTSSIPANNPLVTQLLQGKDVPMEQILPKPLTKVEMKTVPLTAKEERGMGALIATNTTENSTREEVNERQSHPATQQQLGKTLQSKQLPQVPRPLQLFSAKELRDSSIDTHQYHEGLSKATQDQILQTLIQRVRRQNLLSVVPPSQFNFAHSGFQLEDISTSQRFMLGFAGRRTSKPAMAGHYLLNISTYGRGSESFRRTHSVNPEDRFCLSSPTEALKMGYTDCKNATGESSSSKEDDTDEESTGDEQESVTVKEEPQVSQSAGKGDTSSGPHSRETLSTSDCLASKNVKAEIPLNEQTTLSKENYLFTRGQTFDEKTLARDLIQAAQKQMAHAVRGKAIRSSPELFSSTVLPLPADSPTHQPLLLPPLQTPKLYGSPTQIGPSYRGMINVSTSSDMDHNSAVPGSQVSSNVGDVMSFSVTVTTIPASQAMNPSSHGQTIPVQAFSEENSIEGTPSKCYCRLKAMIMCKGCGAFCHDDCIGPSKLCVSCLVVR
modifications: left off: 3xFlag, end not stated, kept | 2xStrep, end not stated, kept
Question: What does the source list for B1?
Answer: association in pull-down (GST-MLL3PHD2/3): essentially abolished; association in pull-down (GST-MLL4PHD2/3): essentially abolished; association with PR-DUB complex (PR-DUB complex): stably associates with the expected components of the PR-DUB complex; interaction with MLL3/4 complexes (MLL3/4 complexes): abrogated the interaction between ASXL2 and MLL3/4 in vivo; deubiquitinase activity toward H2AK119Ub in vitro (H2AK119; BAP1/ASXL2 complexes from co-transfected HEK293FT cells, purified native nucleosomes, room temperature, n=2): does not affect; de-ubiquitination of H2AK119 (H2AK119; purified complexes on human chromatin, 37 °C, 3 or 6 h, immunoblot): efficient and equivalent de-ubiquitination of H2AK119; mono-methylation of H3K4 [1]: markedly decreased; H2AK119ub level [2]: not the ΔMBH ASXL2 mutant led to a decrease in H2AK119ub level; H3K4me1 level [2]: not affected

Reference: article PMC11161652, “ASXLs binding to the PHD2/3 fingers of MLL4 provides a mechanism for the recruitment of BAP1 to active enhancers” (Nature Communications, 2024)
